Blank lines part the entries; values can stand above or below the substance they belong to.
Key:
[1] = molecular target: recombinant KIR2DL1 protein (entire extracellular domain, produced in E. coli, refolded) (human) (UniProt P43626); assay: BIAcore competition on KIR2DL1 chip; first Ab DF200, second Ab (competitor) 1-6F5
[2] = molecular target: recombinant KIR2DL3 protein (entire extracellular domain, produced in E. coli, refolded) (human) (UniProt P43628); assay: BIAcore, second Ab on KIR2DL3 chip with first Ab (competitor) 1-7F9 bound
Sequence of recombinant KIR2DL3 protein (entire extracellular domain, produced in E. coli, refolded) (human) (P43628 22-245): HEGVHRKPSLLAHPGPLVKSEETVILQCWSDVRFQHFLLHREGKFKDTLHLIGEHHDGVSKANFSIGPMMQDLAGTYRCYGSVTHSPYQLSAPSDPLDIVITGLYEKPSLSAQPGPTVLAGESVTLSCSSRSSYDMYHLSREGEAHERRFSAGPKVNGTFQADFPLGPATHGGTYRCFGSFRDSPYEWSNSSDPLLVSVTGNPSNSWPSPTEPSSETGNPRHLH

immobilized KIR2DS1 [3] = molecular target: immobilized KIR2DS1 (UniProt Q14954); assay: BIAcore competition on KIR2DS1 chip; first Ab DF200, second Ab (competitor) 1-4F1
Sequence of immobilized KIR2DS1 (Q14954 22-245 limits assumed): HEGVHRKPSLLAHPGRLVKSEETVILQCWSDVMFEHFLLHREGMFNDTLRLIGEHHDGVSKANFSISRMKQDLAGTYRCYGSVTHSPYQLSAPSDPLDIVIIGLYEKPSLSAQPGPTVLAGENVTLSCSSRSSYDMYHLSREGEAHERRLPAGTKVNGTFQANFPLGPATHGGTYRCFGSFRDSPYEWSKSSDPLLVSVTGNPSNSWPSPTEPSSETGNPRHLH

immobilized KIR2DS1 [4] = molecular target: immobilized KIR2DS1 (UniProt Q14954); assay: BIAcore, direct binding of second Ab to KIR2DS1 chip (field of first Ab 1-7F9)
[5] = molecular target: recombinant KIR2DL3 protein (entire extracellular domain, produced in E. coli, refolded) (human) (UniProt P43628); assay: BIAcore, direct binding of second Ab to KIR2DL3 chip (field of first Ab 1-7F9)
immobilized KIR2DS1 [6] = molecular target: immobilized KIR2DS1 (UniProt Q14954); assay: BIAcore competition on KIR2DS1 chip; first Ab DF200, second Ab (competitor) Pan2D
[7] = molecular target: recombinant KIR2DL3 protein (entire extracellular domain, produced in E. coli, refolded) (human) (UniProt P43628); assay: BIAcore, second Ab on KIR2DL3 chip with first Ab (competitor) 1-6F5 bound
[8] = molecular target: recombinant KIR2DL1 protein (entire extracellular domain, produced in E. coli, refolded) (human) (UniProt P43626); assay: BIAcore competition on KIR2DL1 chip; first Ab DF200, second Ab (competitor) 1-4F1
[9] = molecular target: recombinant KIR2DL3 protein (entire extracellular domain, produced in E. coli, refolded) (human) (UniProt P43628); assay: BIAcore competition on KIR2DL3 chip; first Ab DF200, second Ab (competitor) 1-7F9
[10] = molecular target: recombinant KIR2DL1 protein (entire extracellular domain, produced in E. coli, refolded) (human) (UniProt P43626); assay: BIAcore, second Ab on KIR2DL1 chip with first Ab (competitor) 1-6F5 bound
[11] = molecular target: KIR2DL1(R131W)-hFc (human) (UniProt P43626); assay: ELISA, KIR2DL1(R131W)-hFc captured via goat anti-human antibodies, mAb titrated, peroxidase anti-mouse, A450 [panel DF200]
Sequence of KIR2DL1(R131W)-hFc (human) (P43626 22-245 R152W): as the sequence (Q14954 22-245 limits assumed) above, with K70T, L90V, P114L, R131W, T154P, N163D, R182H, E216K counted along it

[12] = molecular target: recombinant KIR2DL1 protein (entire extracellular domain, produced in E. coli, refolded) (human) (UniProt P43626); assay: BIAcore, direct binding of second Ab to KIR2DL1 chip (field of first Ab 1-6F1)
[13] = molecular target: recombinant KIR2DL1 protein (entire extracellular domain, produced in E. coli, refolded) (human) (UniProt P43626); assay: BIAcore, second Ab on KIR2DL1 chip with first Ab (competitor) 1-7F9 bound
[14] = molecular target: recombinant KIR2DL1 protein (entire extracellular domain, produced in E. coli, refolded) (human) (UniProt P43626); assay: BIAcore, second Ab on KIR2DL1 chip with first Ab (competitor) 1-6F1 bound
[15] = molecular target: recombinant KIR2DL3 protein (entire extracellular domain, produced in E. coli, refolded) (human) (UniProt P43628); assay: BIAcore, second Ab on KIR2DL3 chip with first Ab (competitor) 1-4F1 bound
[16] = molecular target: recombinant KIR2DL3 protein (entire extracellular domain, produced in E. coli, refolded) (human) (UniProt P43628); assay: BIAcore competition on KIR2DL3 chip; first Ab DF200, second Ab (competitor) 1-6F5
[17] = molecular target: recombinant KIR2DL3 protein (entire extracellular domain, produced in E. coli, refolded) (human) (UniProt P43628); assay: BIAcore, direct binding of second Ab to KIR2DL3 chip (field of first Ab 1-4F1)
immobilized KIR2DS1 [18] = molecular target: immobilized KIR2DS1 (UniProt Q14954); assay: BIAcore competition on KIR2DS1 chip; first Ab DF200, second Ab (competitor) 1-7F9
[19] = molecular target: recombinant KIR2DL3 protein (entire extracellular domain, produced in E. coli, refolded) (human) (UniProt P43628); assay: BIAcore competition on KIR2DL3 chip; first Ab DF200, second Ab (competitor) Pan2D
[20] = molecular target: recombinant KIR2DL1 protein (entire extracellular domain, produced in E. coli, refolded) (human) (UniProt P43626); assay: BIAcore competition on KIR2DL1 chip; first Ab DF200, second Ab (competitor) 1-6F1
[21] = molecular target: recombinant KIR2DL1 protein (entire extracellular domain, produced in E. coli, refolded) (human) (UniProt P43626); assay: BIAcore, direct binding of second Ab to KIR2DL1 chip (field of first Ab 1-7F9)
[22] = molecular target: recombinant KIR2DL1 protein (entire extracellular domain, produced in E. coli, refolded) (human) (UniProt P43626); assay: BIAcore competition on KIR2DL1 chip; first Ab DF200, second Ab (competitor) 1-7F9
[23] = molecular target: recombinant KIR2DL1 protein (entire extracellular domain, produced in E. coli, refolded) (human) (UniProt P43626); assay: BIAcore competition on KIR2DL1 chip; first Ab DF200, second Ab (competitor) EB6
[24] = molecular target: recombinant KIR2DL3 protein (entire extracellular domain, produced in E. coli, refolded) (human) (UniProt P43628); assay: BIAcore competition on KIR2DL3 chip; first Ab DF200, second Ab (competitor) 1-4F1
[25] = molecular target: recombinant KIR2DL3 protein (entire extracellular domain, produced in E. coli, refolded) (human) (UniProt P43628); assay: BIAcore, direct binding of second Ab to KIR2DL3 chip (field of first Ab 1-6F1)
[26] = molecular target: recombinant KIR2DL3 protein (entire extracellular domain, produced in E. coli, refolded) (human) (UniProt P43628); assay: BIAcore, direct binding of second Ab to KIR2DL3 chip (field of first Ab 1-6F5)
[27] = molecular target: KIR2DL1-hFc (complete extra-cellular domain of KIR2DL1, amino acids H1-H224, wild-type, fused to human Fc) (human) (UniProt P43626); assay: ELISA, KIR2DL1-hFc captured via goat anti-human antibodies, mAb titrated, peroxidase anti-mouse, A450 [panel DF200]
Sequence of KIR2DL1-hFc (complete extra-cellular domain of KIR2DL1, amino acids H1-H224, wild-type, fused to human Fc) (human) (P43626 22-245): as the sequence (Q14954 22-245 limits assumed) above, with K70T, L90V, P114L, T154P, N163D, R182H, E216K counted along it

[28] = molecular target: recombinant KIR2DL3 protein (entire extracellular domain, produced in E. coli, refolded) (human) (UniProt P43628); assay: BIAcore competition on KIR2DL3 chip; first Ab DF200, second Ab (competitor) 1-6F1
[29] = molecular target: recombinant KIR2DL3 protein (entire extracellular domain, produced in E. coli, refolded) (human) (UniProt P43628); assay: BIAcore competition on KIR2DL3 chip; first Ab DF200, second Ab (competitor) gl183
[30] = molecular target: recombinant KIR2DL1 protein (entire extracellular domain, produced in E. coli, refolded) (human) (UniProt P43626); assay: BIAcore, direct binding of second Ab to KIR2DL1 chip (field of first Ab 1-6F5)
[31] = molecular target: recombinant KIR2DL3 protein (entire extracellular domain, produced in E. coli, refolded) (human) (UniProt P43628); assay: BIAcore, second Ab on KIR2DL3 chip with first Ab (competitor) 1-6F1 bound
[32] = molecular target: recombinant KIR2DL1 protein (entire extracellular domain, produced in E. coli, refolded) (human) (UniProt P43626); assay: BIAcore competition on KIR2DL1 chip; first Ab DF200, second Ab (competitor) Pan2D
immobilized KIR2DS1 [33] = molecular target: immobilized KIR2DS1 (UniProt Q14954); assay: BIAcore, second Ab on KIR2DS1 chip with first Ab (competitor) 1-7F9 bound
[34] = molecular target: recombinant KIR2DL3 protein (entire extracellular domain, produced in E. coli, refolded) (human) (UniProt P43628); assay: BIAcore competition on KIR2DL3 chip; first Ab gl183, second Ab (competitor) 1-6F1
[35] = molecular target: recombinant KIR2DL3 protein (entire extracellular domain, produced in E. coli, refolded) (human) (UniProt P43628); assay: BIAcore competition on KIR2DL3 chip; first Ab gl183, second Ab (competitor) DF200
[36] = molecular target: recombinant KIR2DL3 protein (entire extracellular domain, produced in E. coli, refolded) (human) (UniProt P43628); assay: BIAcore competition on KIR2DL3 chip; first Ab gl183, second Ab (competitor) 1-4F1
[37] = molecular target: recombinant KIR2DL3 protein (entire extracellular domain, produced in E. coli, refolded) (human) (UniProt P43628); assay: BIAcore competition on KIR2DL3 chip; first Ab gl183, second Ab (competitor) 1-7F9
[38] = molecular target: recombinant KIR2DL3 protein (entire extracellular domain, produced in E. coli, refolded) (human) (UniProt P43628); assay: BIAcore competition on KIR2DL3 chip; first Ab gl183, second Ab (competitor) Pan2D

Sequence of recombinant KIR2DL1 protein (entire extracellular domain, produced in E. coli, refolded) (human) (P43626 22-245): as the sequence (Q14954 22-245 limits assumed) above, with K70T, L90V, P114L, T154P, N163D, R182H, E216K counted along it

% inhibition of second Ab binding by first Ab [1]: 15%
RU, binding with first Ab present (RU2) [2]: 450 RU
% inhibition of second Ab binding by first Ab (immobilized KIR2DS1 [3]): 87%
RU, direct binding (RU1) (immobilized KIR2DS1 [4]): 900 RU
RU, direct binding (RU1) [5]: 770 RU
% inhibition of second Ab binding by first Ab (immobilized KIR2DS1 [6]): 70%
RU, binding with first Ab present (RU2) [7]: 760 RU
% inhibition of second Ab binding by first Ab [8]: 92%
% inhibition of second Ab binding by first Ab [9]: 62%
RU, binding with first Ab present (RU2) [10]: 290 RU
EC50 (read off the curve) [11]: 20 nM
RU, direct binding (RU1) [12]: 350 RU
RU, binding with first Ab present (RU2) [13]: 545 RU
RU, binding with first Ab present (RU2) [14]: 310 RU
RU, binding with first Ab present (RU2) [15]: 210 RU
% inhibition of second Ab binding by first Ab [16]: 4%
RU, direct binding (RU1) [17]: 1140 RU
% inhibition of second Ab binding by first Ab (immobilized KIR2DS1 [18]): 15%
% inhibition of second Ab binding by first Ab [19]: 75%
% inhibition of second Ab binding by first Ab [20]: 15%
RU, direct binding (RU1) [21]: 600 RU
% inhibition of second Ab binding by first Ab [22]: 27%
% inhibition of second Ab binding by first Ab [23]: 90%
% inhibition of second Ab binding by first Ab [24]: 75%
RU, direct binding (RU1) [25]: 790 RU
RU, direct binding (RU1) [26]: 800 RU
EC50 (read off the curve) [27]: 20 nM
% inhibition of second Ab binding by first Ab [28]: 16%
% inhibition of second Ab binding by first Ab [29]: 20%
RU, direct binding (RU1) [30]: 350 RU
RU, binding with first Ab present (RU2) [31]: 760 RU
% inhibition of second Ab binding by first Ab [32]: 80%
RU, binding with first Ab present (RU2) (immobilized KIR2DS1 [33]): 1090 RU
Substance: monoclonal antibody DF200 produced by hybridoma DF200

% inhibition of second Ab binding by first Ab [34]: 18%
RU, binding with first Ab present (RU2) [2]: 200 RU
% inhibition of second Ab binding by first Ab [35]: 8%
RU, direct binding (RU1) [5]: 800 RU
RU, binding with first Ab present (RU2) [15]: 330 RU
% inhibition of second Ab binding by first Ab [36]: 75%
RU, direct binding (RU1) [17]: 1240 RU
RU, direct binding (RU1) [25]: 620 RU
% inhibition of second Ab binding by first Ab [37]: 76%
% inhibition of second Ab binding by first Ab [38]: 40%
RU, binding with first Ab present (RU2) [31]: 570 RU
Substance: GL183 (IgG1 anti KIR2DL3) (antibody)

From US20140193430A1
